Here are results for 3 molecules from patent US20230233676A1, “Use of Approved Anti-CD38 Antibody Drug Product in Combination with Pomalidomide and Dexamethasone to Treat Multiple Myeloma” (Janssen Biotech, Inc., priority 2022, published 2023).

Read-outs that look alike come from different tables or passages of the source. Marks after values point to notes of the source that are not given here.

The target in series [1] is T1, CD38 on red blood cells (RBCs) (Homo sapiens, UniProt P28907).
T1 construct: endogenous in cells; host or cells: red blood cells (patient / reagent RBCs)
Briefly: Interference with serological testing (Indirect Antiglobulin Test). From the text:
Since the Kell blood group system is also sensitive to DTT treatment, supply K-negative units after ruling out or identifying alloantibodies using DTT-treated RBCs.

The conditions of series [2]: human, in vivo.
The nature of series [3]: Daratumumab pharmacokinetics in patients with light chain (AL) amyloidosis. The class given is in vivo, human.
Series [4] has as its system patients with relapsed or refractory multiple myeloma. Briefly: COLUMBA randomized non-inferiority study, DARZALEX FASPRO monotherapy versus intravenous daratumumab.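 Also: randomized arms stratified by body weight, myeloma type and count of earlier treatment lines, enrolled patients having a median of 4 previous lines.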
Source text: The major efficacy outcome measures were ORR by the IMWG response criteria and maximum Ctrough at pre-dose Cycle 3 Day 1 [see Clinical Pharmacology (12.3)]. Randomization was stratified by body weight, myeloma type, and number of prior lines of therapy.
Patients had received a median of 4 prior lines of therapy. […] Forty-nine percent of patients were refractory both a PI and an immunomodulatory agent. Eighty-two percent of patients were refractory to their last line of prior systemic therapy.
The test system of series [5] is pregnant mice and offspring. Briefly: Hyaluronidase developmental toxicity in mice. The class given is in vivo. The source says:
There were no effects on pre- and post-natal development through sexual maturity in offspring of mice treated daily from implantation through lactation with 990,000 U/kg hyaluronidase subcutaneously, which is 134 times higher than the human doses.

For the next series, the system named is monkeys. The series can be described thus: Hyaluronidase given subcutaneously to monkeys (systemic exposure, reproductive tissues). The series is classed as in vivo. The protocol: No carcinogenicity, genotoxicity, or fertility studies were conducted for recombinant human hyaluronidase. […] As hyaluronidase is a recombinant form of the endogenous human hyaluronidase, no carcinogenicity, mutagenesis, or effects on fertility are expected.

The mark [6] stands for this setting: All Grades, worsening from baseline.
Where [7] appears, read: monkeys given 22,000 U/kg/week subcutaneously for 39 weeks.

Take “Daratumumab: immunoglobulin G1 kappa (IgG1κ) human monoclonal antibody that binds to the CD38 antigen; heavy chain SEQ ID NO: 12, light chain SEQ ID NO: 13”: in series [1], the “Indirect Antiglobulin Test (Indirect Coombs test)” value was “positive” and the “persistence of positive indirect antiglobulin test after the last administration” value is “up to 6 months”. In series [2], the “estimated mean elimination half-life associated with linear clearance” value is 20 days; the “estimated mean linear clearance” value is given as 119 mL/day; the “estimated mean volume of distribution for the central compartment” value is reported as 5.2 L; the “estimated mean volume of distribution, peripheral compartment” value was 3.8 L. Also, in series [2], the “pharmacokinetics in geriatric patients compared to younger adult patients” value was “No clinically meaningful differences”. In addition, the “estimated mean volume of distribution” value in series [3] (CV 28%) was 10.8 L. Also, the “estimated mean linear clearance” value in series [3] (CV 42%) is 210 mL/day. Also, the “estimated mean elimination half-life associated with linear clearance” value in series [3] (CV 74%) was 28 days.
With “Intravenous Daratumumab: daratumumab 16 mg/kg administered intravenously”, the “Observed mean ± SD max Ctrough after 8th dose” value in series [2] was 522 ± 226^a,b μg/mL. In addition, in series [4] (All Grades), the Back pain turned out to be 12%, the Chills is 12%, the Cough was 14% and the Diarrhea was 11%. In series [4] (All Grades), the Dyspnea was determined as 11%, the Fatigue turned out to be 16%, the Infusion reactions was determined as 34% and the Nausea was determined as 11%. In series [4] (All Grades), this molecule yielded a Pneumonia of 10% and a Pyrexia of 13%. In series [4] (setting [6]), the Decreased hemoglobin is on record as 39%, the Decreased leukocytes was 57%, the Decreased lymphocytes was determined as 56% and the Decreased neutrophils was found to be 43%. In series [4] (setting [6]), this molecule gave a Decreased platelets of 45%. Also, in series [4] (Grade ≥3), the Back pain is 3^# %, the Chills is on record as 1^# %, the Cough was determined as 0% and the Diarrhea is 0.4^# %. In series [4] (Grade ≥3), the Dyspnea was 1^# %, the Fatigue is given as 2^# %, the Infusion reactions is on record as 5^# % and the Nausea is reported as 0.4^# %. For the same molecule, in series [4] (Grade ≥3), the Pneumonia is reported as 6^@ % and the Pyrexia is given as 1^# %. In series [4] (Grades 3-4), this molecule returned a Decreased hemoglobin of 16%, a Decreased leukocytes of 14%, a Decreased lymphocytes of 36% and a Decreased neutrophils of 11%. The Decreased platelets in series [4] (Grades 3-4) is 14%. For the same molecule, in series [4] (in vivo), the CR or better entry is given as “(2.7%)”, the Median progression-free survival is on record as 6.1 months, the “Partial response (PR)” value is recorded as “(20%)” and the “Very good partial response (VGPR)” value was “(14%)”. Besides, the “Overall response (sCR + CR + VGPR + PR)” value in series [4] (intent-to-treat population) is “(37%)”.

B1: hyaluronidase: recombinant hyaluronidase rHuPH20 having the amino acid sequence of SEQ ID NO: 22 (protein, listed as Homo sapiens)
chain: LNFRAPPVIPNVPFLWAWNAPSEFCLGKFDEPLDMSLFSFIGSPRINATGQGVTIFYVDRLGYYPYIDSITGVTVNGGIPQKISLQDHLDKAKKDITFYMPVDNLGMAVIDWEEWRPTWARNWKPKDVYKNRSIELVQQQNVQLSLTEATEKAKQEFEKAGKDFLVETIKLGKLLRPNHLWGYYLFPDCYNHHYKKPGYNGSCFNVEIKRNDDLSWLWNESTALYPSIYLNTQQSPVAATLYVRNRVREAIRVSKIPDAKSPLPVFAYTRIVFTDQVLKFLSQDELVYTFGETVALGASGIVIWGTLSIMRSMKSCLLLDNYMETILNPYIINVTLAAKMCSQVLCQEQGVCIRKNWNSSDYLHLNPDNFAIQLEKGGKFTVRGKPTLEDLEQFSEKFYCSCYSTLSCKEKADVKDTDAVDVCIADGVCIDAFLKPPMETEEPQIFY
For the molecule B1, in series [5] (mice treated daily during lactation with 990,000 U/kg subcutaneously), the “effects on post-natal development through sexual maturity in offspring” value was “no effects”. For the same molecule, in series [5] (mice treated daily from implantation through lactation with 990,000 U/kg subcutaneously), the “effects on pre- and post-natal development through sexual maturity in offspring” value is “no effects”. For the same molecule, the “effects on embryo-fetal development” value in series [5] (pregnant mice given 330,000 U/kg subcutaneously daily during organogenesis) was “no effects”. Also, in the series with monkeys (monkeys given 22,000 U/kg subcutaneously), the “systemic exposure of hyaluronidase” value was “No systemic exposure”. Besides, in the series with monkeys (setting [7]), the “effects on reproductive tissues and function” value was “no effects”; the “systemic exposure of hyaluronidase” value is on record as “no systemic exposure”.
